# Assay results published in US20210380703A1.
# Target: human Fc (human)
# Test: ELISA; negative control
row,Binder,optical density
1,"376_G09 (antibody, V domains shown) VH: EVQLLESGGGLVQPGGSLRLSCAASGFTFDSYSMNWVRQAPGKGLEWVSGINYNSGYKGYADSVKGRFTISRDNSKNTLYLQMNSLRAEDTAVYYCARSANWHDTALDYWGQGTLVTVSS VL: DIQMTQSPSSLSASVGDRVTITCRASQSISYYLNWYQQKPGKAPKLLIYAVTSRASGVPSRFSGSGSGTDFTLTISSLQPEDFATYYCQQSYDNPLTFGGGTKVEIK",0.23 OD
2,"368_C01 (antibody, V domains shown) VH: EVQLLESGGGLVQPGGSLRLSCAASGFTFDSYGMNWVRQAPGKGLEWVAGINYNGGYTGYADSVKGRFTISRDNSKNTLYLQMNSLRAEDTAVYYCARSATWHDTALDYWGQGTLVTVSS VL: DIQMTQSPSSLSASVGDRVTITCRASQSIITYLNWYQQKPGKAPKLLIYAATSRASGVPSRFSGSGSGTDFTLTISSLQPEDFATYYCQQSYDSPLTFGGGTKVEIK",0.41 OD
3,"376_C06 (antibody, V domains shown) VH: EVQLLESGGGLVQPGGSLRLSCAASGFTFSSYGMNWVRQAPGKGLEWVAGINYNGGYTSYADSVKGRFTISRDNSKNTLYLQMNSLRAEDTAVYYCARSATWHDTALDYWGQGTLVTVSS VL: DIQMTQSPSSLSASVGDRVTITCRASQSILSYLNWYQQKPGKAPKLVIYAATSRASGVPSRFSGSGSGTDFTLTISSLQPEDFATYYCQQSYDSPLTFGGGTKVEIK",0.29 OD
4,"368_D10 (antibody, V domains shown) VH: EVQLLESGGGLVQPGGSLRLSCAASGFTFDSYGMNWVRQAPGKGLEWVAGINYNSGYTSYADSVKGRFTISRDNSKNTLYLQMNSLRAEDTAVYYCARSATWHDTALDYWGQGTLVTVSS VL: DIQMTQSPSSLSASVGDRVTITCRASQSILSYLNWYQQKPGKAPKLVIYAATSRASGVPSRFSGSGSGTDFTLTISSLQPEDFATYYCQQSYDSPLTFGGGTKVEIK",0.245 OD

# The remaining lines, values ahead:
row,optical density,Binder
1,0.281 OD,"376_H09 (antibody, V domains shown) VH: EVQLLESGGGLVQPGGSLRLSCAASGFTFSDYSMNWVRQAPGKGLEWVANINYNGGYTGYADSVKGRFTISRDNSKNTLYLQMNSLRAEDTAVYYCARSANWHDTALDYWGQGTLVTVSS VL: DIQMTQSPSSLSASVGDRVTITCRASQSIITYLNWYQQKPGKAPKLVIYYVSNLPSGVPSRFSGSGSGTDFTLTISSLQPEDFATYYCQQSYDSPLTFGGGTKVEIK"
2,0.418 OD,"370_G12 (antibody, V domains shown) VH: EVQLLESGGGLVQPGGSLRLSCAASGFTFSSYSMNWVRQAPGKGLEWVAGINYNGGYKGYADSVKGRFTISRDNSKNTLYLQMNSLRAEDTAVYYCARSATWHDTALDYWGQGTLVTVSS VL: DIQMTQSPSSLSASVGDRVTITCRASQSIITYLNWYQQKPGKAPKLLIYAATSLASGVPSRFSGSGSGTDFTLTISSLQPEDFATYYCQQSDESPLTFGGGTKVEIK"
3,0.318 OD,"376_H10 (antibody, V domains shown) VH: EVQLLESGGGLVQPGGSLRLSCAASGFTFDSYSMNWVRQAPGKGLEWVSGINYNSGYKSYADSVKGRFTISRDNSKNTLYLQMNSLRAEDTAVYYCARSANWHDTALDYWGQGTLVTVSS VL: DIQMTQSPSSLSASVGDRVTITCRASQSILTYLNWYQQKPGKAPKLVIYAATSRHSGVPSRFSGSGSGTDFTLTISSLQPEDFATYYCQQSYDSPLTFGGGTKVEIK"
4,0.357 OD,"365_E02 (antibody, V domains shown) VH: EVQLLESGGGLVQPGGSLRLSCAASGFTFSSYSMNWVRQAPGKGLEWVANINYNGGYTSYADSVKGRFTISRDNSKNTLYLQMNSLRAEDTAVYYCAKSATWHDTHLDYWGQGTLVTVSS VL: DIQMTQSPSSLSASVGDRVTITCRASQSIISYLNWYQQKPGKAPKLLIYAATSRASGVPSRFSGSGSGTDFTLTISSLQPEDFATYYCQQSYENPLTFGGGTKVEIK"
